Measured values as given in paper PMC6400076 (Frontiers in Microbiology, 2019).

Tests used:
SpGAPDH = biological target: T1, SpGAPDH (Streptococcus pyogenes, UniProt P68777)
T1 construct: gene gap

AvGAPDH = biological target: T2, AvGAPDH (Fannyhessea vaginae, UniProt F1T6A5); type: biochemical
T2 construct: gene gap; recombinant, expressed and purified by similar protocols as previously described, homotetramer

O=C[C@H](O)COP(=O)(O)O = assay: purified protein; details: 2 mM NAD+, 50 mM Pi, pH 8.5, 25°C
[1] = tested on: NC(=O)c1ccc[n+]([C@@H]2O[C@H](COP(=O)(O)OP(=O)(O)OC[C@H]3O[C@@H](n4cnc5c(N)ncnc54)[C@H](O)[C@@H]3O)[C@@H](O)[C@H]2O)c1; assay: purified protein; details: 5 mM G3P, 50 mM Pi, pH 8.5, 25°C

T1 sequence (P68777 whole entry): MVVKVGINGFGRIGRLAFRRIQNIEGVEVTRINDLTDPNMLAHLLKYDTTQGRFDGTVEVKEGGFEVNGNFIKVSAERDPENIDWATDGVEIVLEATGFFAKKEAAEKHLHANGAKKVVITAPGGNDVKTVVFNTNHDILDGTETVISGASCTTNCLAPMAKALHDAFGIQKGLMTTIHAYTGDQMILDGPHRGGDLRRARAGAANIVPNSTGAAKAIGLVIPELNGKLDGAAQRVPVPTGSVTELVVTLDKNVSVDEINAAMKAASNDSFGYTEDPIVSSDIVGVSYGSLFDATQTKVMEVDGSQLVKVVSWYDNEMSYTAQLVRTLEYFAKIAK
T2 sequence (F1T6A5 entry or part of it): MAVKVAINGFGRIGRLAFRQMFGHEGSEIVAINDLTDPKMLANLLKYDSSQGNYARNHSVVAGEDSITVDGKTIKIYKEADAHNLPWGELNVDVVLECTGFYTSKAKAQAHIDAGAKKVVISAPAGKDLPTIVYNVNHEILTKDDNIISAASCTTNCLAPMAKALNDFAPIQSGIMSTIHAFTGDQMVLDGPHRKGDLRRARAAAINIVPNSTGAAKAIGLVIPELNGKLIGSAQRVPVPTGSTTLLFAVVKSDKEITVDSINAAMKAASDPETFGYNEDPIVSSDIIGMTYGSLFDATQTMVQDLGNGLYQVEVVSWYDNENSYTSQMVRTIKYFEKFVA

Row | Molecule | Ki (SpGAPDH) | Ki (AvGAPDH) | Km (O=C[C@H](O)COP(=O)(O)O) | Vmax (O=C[C@H](O)COP(=O)(O)O) | kcat (O=C[C@H](O)COP(=O)(O)O) | kcat/Km (O=C[C@H](O)COP(=O)(O)O) | Km [1] | Vmax [1] | kcat [1]
1 | CCCCCCCCCCCCCCCc1cccc(O)c1C(=O)O [anacardic acid, 6-pentadecylsalicylic acid] | 3.3 ± 0.3 µM | 1.25 ± 0.08 µM |  |  |  |  |  |  | 
2 | COc1cc(/C=C/C(=O)CC(=O)/C=C/c2ccc(O)c(OC)c2)ccc1O [curcumin] | 38 ± 4 µM | 39 ± 3 µM |  |  |  |  |  |  | 
3 | SpGAPDH (Streptococcus pyogenes MGAS8232) |  |  | 2800 ± 300 µM | 3.67e+06 µM/min/mg | 6110 ± 260 s⁻¹ | 2.18e+06 ± 320000 M⁻¹ s⁻¹ | 280 ± 30 µM | 2.24e+06 µM/min/mg | 3730 ± 100 s⁻¹
